The values below come from patent US20150210998A1.

Assay [1] deals with His6-E6AP ligase (full-length, baculovirus-expressed) (human) (UniProt Q05086). Nature of the assay: non-competitive inhibition with respect to [UbcH7]o of His6-E6AP chain formation.
For assay [2] the target is unchanged. In words: concentration dependence of inhibition of E6AP-catalyzed polyubiquitin chain formation.
For assay [3], the target named is GST-E6AP ligase (wild-type, bacterially expressed fusion protein) (human) (UniProt Q05086). In words: inhibition of GST-E6AP-catalyzed 125I-polyubiquitin chain formation.
Assay [4] concerns the target His6-E6AP ligase (full-length, baculovirus-expressed) (human) (UniProt Q05086). Nature of the assay: activation kinetics of His6-E6AP-catalyzed 125I-polyubiquitin chain formation (non-essential activator, double reciprocal plot).
For assay [5], the target named is GST-E6APY533A (human) (UniProt Q05086). Nature of the assay: cell-based or functional assay.
Chain of GST-E6APY533A (human) (Q05086 other isoform, or with tags, fused parts or gaps): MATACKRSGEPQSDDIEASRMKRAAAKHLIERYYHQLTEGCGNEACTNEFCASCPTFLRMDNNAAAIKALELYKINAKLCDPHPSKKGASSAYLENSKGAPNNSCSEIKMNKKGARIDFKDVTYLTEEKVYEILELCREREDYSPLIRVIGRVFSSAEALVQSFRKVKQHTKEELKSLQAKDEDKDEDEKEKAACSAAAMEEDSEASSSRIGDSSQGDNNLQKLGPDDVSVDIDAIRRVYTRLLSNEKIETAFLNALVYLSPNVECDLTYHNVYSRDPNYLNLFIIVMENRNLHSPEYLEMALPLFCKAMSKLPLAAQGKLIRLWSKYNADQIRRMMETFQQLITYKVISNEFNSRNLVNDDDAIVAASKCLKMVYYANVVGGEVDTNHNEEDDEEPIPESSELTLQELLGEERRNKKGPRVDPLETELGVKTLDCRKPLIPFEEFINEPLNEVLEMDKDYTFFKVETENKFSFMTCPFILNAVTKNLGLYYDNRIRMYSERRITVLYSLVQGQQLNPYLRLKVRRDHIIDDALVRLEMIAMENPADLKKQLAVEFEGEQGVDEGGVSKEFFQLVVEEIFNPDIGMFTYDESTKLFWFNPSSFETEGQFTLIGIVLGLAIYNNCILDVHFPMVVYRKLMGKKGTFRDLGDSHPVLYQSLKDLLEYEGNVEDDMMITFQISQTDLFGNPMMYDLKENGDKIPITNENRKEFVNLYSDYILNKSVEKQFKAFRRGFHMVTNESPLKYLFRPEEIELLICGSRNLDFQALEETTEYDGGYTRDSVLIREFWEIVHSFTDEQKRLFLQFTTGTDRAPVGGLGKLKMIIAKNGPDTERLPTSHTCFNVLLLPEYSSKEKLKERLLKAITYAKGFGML
Assay [6] has as its target GST-E6APR626A (human) (UniProt Q05086). In words: cell-based or functional assay.
The target in assay [7] is His6-E6AP ligase (full-length, baculovirus-expressed) (human) (UniProt Q05086). In words: cell-based or functional assay.
Assay [8] addresses GST-E6AP ligase (wild-type, bacterially expressed fusion protein) (human) (UniProt Q05086). Nature of the assay: calculated from the Ki of inhibition of chain formation.
Assay [9] shares this target. Nature of the assay: inhibition of GST-E6AP-catalyzed 125I-polyubiquitin chain formation, nonlinear hyperbolic regression.
The target of assay [10] is His6-E6AP ligase (full-length, baculovirus-expressed) (human) (UniProt Q05086). Nature of the assay: non-competitive inhibition with respect to [UbcH7]o of E6AP chain formation.

Chain of GST-E6APR626A (human) (Q05086 other isoform, or with tags, fused parts or gaps): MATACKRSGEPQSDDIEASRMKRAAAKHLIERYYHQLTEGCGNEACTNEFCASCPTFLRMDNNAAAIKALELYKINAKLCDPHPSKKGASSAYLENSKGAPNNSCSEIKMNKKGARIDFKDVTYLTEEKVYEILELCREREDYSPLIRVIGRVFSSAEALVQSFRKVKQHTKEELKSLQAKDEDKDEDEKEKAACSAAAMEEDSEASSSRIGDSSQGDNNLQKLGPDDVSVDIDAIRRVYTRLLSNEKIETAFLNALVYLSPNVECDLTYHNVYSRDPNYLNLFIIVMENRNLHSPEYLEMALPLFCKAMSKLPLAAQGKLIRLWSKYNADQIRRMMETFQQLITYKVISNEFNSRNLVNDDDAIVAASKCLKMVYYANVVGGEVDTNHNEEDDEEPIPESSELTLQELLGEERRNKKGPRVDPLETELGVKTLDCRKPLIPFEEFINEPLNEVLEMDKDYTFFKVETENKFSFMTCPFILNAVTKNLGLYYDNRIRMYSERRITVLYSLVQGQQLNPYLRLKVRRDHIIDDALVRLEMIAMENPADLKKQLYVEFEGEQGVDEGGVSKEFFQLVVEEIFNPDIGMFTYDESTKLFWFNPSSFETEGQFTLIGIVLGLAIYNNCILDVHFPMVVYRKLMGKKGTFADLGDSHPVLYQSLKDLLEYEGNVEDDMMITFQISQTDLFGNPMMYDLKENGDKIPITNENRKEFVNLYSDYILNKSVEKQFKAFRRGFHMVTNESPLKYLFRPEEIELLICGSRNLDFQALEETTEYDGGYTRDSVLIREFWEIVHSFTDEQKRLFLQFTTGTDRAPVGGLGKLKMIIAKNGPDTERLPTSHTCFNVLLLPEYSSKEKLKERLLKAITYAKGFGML
Chain of E6AP-HectC820A (thrombin-processed) (Q05086 473-875 C843A limits assumed): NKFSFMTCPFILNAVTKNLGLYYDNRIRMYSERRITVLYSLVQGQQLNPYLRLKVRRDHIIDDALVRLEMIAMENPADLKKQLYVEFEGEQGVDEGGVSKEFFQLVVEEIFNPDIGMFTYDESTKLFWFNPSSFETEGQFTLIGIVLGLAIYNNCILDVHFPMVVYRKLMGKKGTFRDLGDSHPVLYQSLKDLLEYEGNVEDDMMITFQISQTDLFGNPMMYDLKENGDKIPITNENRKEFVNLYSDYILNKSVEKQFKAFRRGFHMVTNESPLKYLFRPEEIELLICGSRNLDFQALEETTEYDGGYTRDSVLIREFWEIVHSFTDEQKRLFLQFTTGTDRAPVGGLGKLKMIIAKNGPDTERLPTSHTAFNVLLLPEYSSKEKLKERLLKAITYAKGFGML
Chain of GST-E6AP-HectC820A (Q05086 473-875 C843A): as the sequence (Q05086 473-875 C843A limits assumed) above

With “E6(HPV16)Δ91 N-terminal domain (from UniProt P03126 1-91)”, the Ki (as a rule, the equilibrium dissociation constant of an inhibitor or competing ligand from its target) in assay [1] was found to be 6 µM; in assay [2], 4 µM.
Turning to “GST-E6AP-HectC820A (from UniProt Q05086 450-852)”, the Ki in [3] was 31 µM.
With “HPV16 E6 protein (recombinant, full-length) (from UniProt P03126 1-158)”, in assay [4], the Kd – broadly, the equilibrium constant for the complex coming apart – came to 0.0015 µM. Further, the increase in rate of 125I-polyubiquitin chain formation with 20 nM E6 in assay [5] is 8 fold; in assay [6], 13 fold. Further, the stimulation in E6AP ligase activity at saturating E6 protein in assay [7] came to 14 fold.
Regarding “E6APΔ495 (thrombin-processed) (from UniProt Q05086 1-495)”, in [8], the ΔGbinding is -6.4 kcal/mol. Moreover, the Ki in assay [9] was 19 µM.
Consider “GST-E6APΔ495 (from UniProt Q05086 1-495)”, for which the ΔGbinding in assay [8] was -6.7 kcal/mol. Moreover, the Ki in [9] worked out at 12 µM.
Turning to “E6(HPV16)Ct C-terminal domain (from UniProt P03126 89-158)”, the Ki in [10] stood at 4 µM.
In [3], “E6AP-HectC820A (thrombin-processed) (from UniProt Q05086 450-852)” came in with a Ki of 27 µM.
